Assay results: article PMC11297931, “Structural basis of Cdk7 activation by dual T-loop phosphorylation” (Nature Communications, 2024)

B1: VHH_(RD7-04), form for co-crystallization (VHH)
VHH: QVQLVESGGGLVQPGGSLRLSCVASGFTFKNFYMGWVRQAPDKGLEWVATINSGGEIQSYADSVKGRFTISRDNAKNTLYLQMNNLRPEDTAVYYCSKQSSTPAKGQGTQVTVSS
notes: nanobody chain of the deposited structure PDB 8PYR; Expression construct pelB-His6-TEV-NB in a modified pET28a vector; also called nanobody VHH RD7-04; chaperoning nanobody; source: E. coli BL21 (DE3), periplasmic extract, purified (HisTrap, TEV, SEC, reverse Ni-NTA); not shown: His6, N-terminal, cleaved
B2: MBP-Mat1_(230-309) (domain or fragment, human, UniProt P51948 230-309, looked up)
chain: GQHISLAPIHKLEEALYEYQPLQIETYGPHVPELEMLGRLGYLNHVRAASPQDLAGGYTSSLACHRALQDAFSGLFWQPS
notes: source: Sf9 (baculovirus), expressed separately from Cdk7/Cyclin H; purified as an MBP fusion protein; also in lysate (pooled with GST-Cdk7/Cyclin H lysate); not shown: MBP, N-terminal, kept

Key:
Mat1 (230-309) = biological target: T1, Mat1 (230-309) (human, UniProt P51948); experiment: crystal structure; Cdk7/Cyclin H/Mat1(230-309) mixed 1:1 with VHH RD7-04, with 1 mM ADP/Mg2+; hanging drop, 0.1 M Hepes pH 7.0, PEG 6K/4K, 15 °C; 2.15 Å; conditions: both partners purified
T1 construct: also called C-terminal fragment of Mat1; source: lysate pooled with GST-Cdk7/Cyclin H lysate; purified (MBPTrap, TEV, SEC, reverse MBP and GST); not shown: MBP, N-terminal, cleaved

[1] = biological target: Cdk7(R167A)/Cyclin H binary complex (human, UniProt P50613 2-346; P51946 1-323, R167A); experiment: cell-based or functional assay
[2] = biological target: T2, wild-type Cdk7/Cyclin H binary complex, doubly phosphorylated (human, UniProt P50613 2-346; P51946 1-323, phosphoserine at 164; phosphothreonine at 170 | M1 acetylated); experiment: cell-based or functional assay
[3] = biological target: T2, wild-type Cdk7/Cyclin H binary complex, …; experiment: SPR; MBP-Mat1(230-309) (15 nM) captured by anti-MBP antibody amine-coupled to a CM5 chip; Cdk7/Cyclin H complexes as analyte, multi-cycle kinetics, up to 150 nM, association 180 s, dissociation 900 s; 25 °C; 10 mM HEPES pH 7.4, 150 mM NaCl, 0.05% Tween20; steady-state affinity fit; Biacore 8K; conditions: both partners purified

T2 sequence (P50613 2-346, chain 1 of 2): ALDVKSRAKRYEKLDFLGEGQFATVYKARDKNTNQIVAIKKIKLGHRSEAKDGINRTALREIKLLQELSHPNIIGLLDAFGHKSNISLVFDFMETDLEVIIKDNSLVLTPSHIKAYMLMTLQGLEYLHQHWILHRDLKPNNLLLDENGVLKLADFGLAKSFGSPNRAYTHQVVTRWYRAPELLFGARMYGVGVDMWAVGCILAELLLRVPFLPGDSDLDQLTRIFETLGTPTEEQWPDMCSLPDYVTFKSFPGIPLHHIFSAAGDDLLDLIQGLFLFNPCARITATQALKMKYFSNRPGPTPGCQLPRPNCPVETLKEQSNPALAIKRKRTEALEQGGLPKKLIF
T2 sequence (P51946 whole entry, chain 2 of 2): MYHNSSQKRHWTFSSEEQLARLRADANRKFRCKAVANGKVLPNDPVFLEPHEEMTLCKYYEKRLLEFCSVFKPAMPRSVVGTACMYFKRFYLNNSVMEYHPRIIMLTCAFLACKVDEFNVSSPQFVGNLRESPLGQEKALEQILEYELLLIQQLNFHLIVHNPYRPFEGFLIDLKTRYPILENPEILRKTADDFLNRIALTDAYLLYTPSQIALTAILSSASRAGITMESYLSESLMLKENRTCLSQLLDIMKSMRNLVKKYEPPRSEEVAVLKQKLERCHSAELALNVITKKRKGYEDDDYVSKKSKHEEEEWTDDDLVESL
Cdk7(R167A)/Cyclin H binary complex, sequence (P50613 2-346 R167A, chain 1 of 2): as the sequence (P50613 2-346, chain 1 of 2) above, with R166A counted along it
Cdk7(R167A)/Cyclin H binary complex, sequence (P51946 whole entry, chain 2 of 2): as the sequence (P51946 whole entry, chain 2 of 2) above

Binder	binding result (Mat1 (230-309))	stimulation of kinase activity by Mat1 addition, normalized to the complex without Mat1 (Fig. 3f) [1]	stimulation of kinase activity by Mat1 addition, normalized to the complex without Mat1 (Fig. 3f) [2]	Kd [3]
B1	binds	–	–	–
B2	–	~5 fold	~10 fold	9.8 nM
